The values that follow are results of earlier work, collected in article PMC12405408.

In the series the target is CaSR (Homo sapiens) (UniProt P41180).
UniProt P41180, sequence (P41180 20-1078): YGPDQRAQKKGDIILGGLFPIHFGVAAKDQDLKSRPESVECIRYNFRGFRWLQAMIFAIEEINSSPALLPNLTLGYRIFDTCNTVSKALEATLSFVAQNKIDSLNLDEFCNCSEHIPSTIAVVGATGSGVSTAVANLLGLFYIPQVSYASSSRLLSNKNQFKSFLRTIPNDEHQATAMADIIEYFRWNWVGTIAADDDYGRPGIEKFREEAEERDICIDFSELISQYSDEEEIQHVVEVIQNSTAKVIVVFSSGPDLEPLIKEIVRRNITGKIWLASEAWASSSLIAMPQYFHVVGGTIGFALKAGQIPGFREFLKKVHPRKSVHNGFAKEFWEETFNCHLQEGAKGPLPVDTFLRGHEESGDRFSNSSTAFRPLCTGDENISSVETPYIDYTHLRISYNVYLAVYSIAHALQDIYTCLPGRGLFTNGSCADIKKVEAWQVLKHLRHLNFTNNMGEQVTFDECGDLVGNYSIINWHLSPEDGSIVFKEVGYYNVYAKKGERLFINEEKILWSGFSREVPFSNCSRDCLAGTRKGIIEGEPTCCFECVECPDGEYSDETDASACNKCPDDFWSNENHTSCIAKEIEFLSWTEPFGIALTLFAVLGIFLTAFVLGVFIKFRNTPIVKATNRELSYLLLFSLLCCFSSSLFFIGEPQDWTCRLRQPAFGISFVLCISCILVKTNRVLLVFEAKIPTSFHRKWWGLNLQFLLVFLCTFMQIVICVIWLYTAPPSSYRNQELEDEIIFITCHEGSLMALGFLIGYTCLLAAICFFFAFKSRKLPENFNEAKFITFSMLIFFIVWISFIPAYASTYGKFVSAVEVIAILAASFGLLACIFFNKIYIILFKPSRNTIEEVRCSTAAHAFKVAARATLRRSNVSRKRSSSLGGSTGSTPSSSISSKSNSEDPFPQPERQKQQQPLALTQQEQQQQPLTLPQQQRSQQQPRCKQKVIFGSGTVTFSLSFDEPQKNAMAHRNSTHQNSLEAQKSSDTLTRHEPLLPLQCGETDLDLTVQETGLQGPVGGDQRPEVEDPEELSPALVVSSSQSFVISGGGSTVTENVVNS

With EWVPVTK peptide, the Kd is 3.2 nM.
